Data reported in article PMC4133371.

B1: β-catenin (natural protein)
chain: MATQADLMELDMAMEPDRKAAVSHWQQQSYLDSGIHSGATTTAPSLSGKGNPEEEDVDTTQVLYEWEQGFSQSFTQEQVADIDGQYAMTRAQRVRAAMFPETLDEGMQIPSTQFDAAHPTNVQRLAEPSQMLKHAVVNLINYQDDAELATRAIPELTKLLNDEDQVVVNKAAVMVHQLSKKEASRHAIMRSPQMVSAIVRTMQNTNDVETARCTAGTLHNLSHHREGLLAIFKSGGIPALVKMLGSPVDSVLFYAITTLHNLLLHQEGAKMAVRLAGGLQKMVALLNKTNVKFLAITTDCLQILAYGNQESKLIILASGGPQALVNIMRTYTYEKLLWTTSRVLKVLSVCSSNKPAIVEAGGMQALGLHLTDPSQRLVQNCLWTLRNLSDAATKQEGMEGLLGTLVQLLGSDDINVVTCAAGILSNLTCNNYKNKMMVCQVGGIEALVRTVLRAGDREDITEPAICALRHLTSRHQEAEMAQNAVRLHYGLPVVVKLLHPPSHWPLIKATVGLIRNLALCPANHAPLREQGAIPRLVQLLVRAHQDTQRRTSMGGTQQQFVEGVRMEEIVEGCTGALHILARDVHNRIVIRGLNTIPLFVQLLYSPIENIQRVAAGVLCELAQDKEAAEAIEAEGATAPLTELLHSRNEGVATYAAAVLFRMSEDKPQDYKKRLSVELTSSLFRTEPMAWNETADLGLDIGAQGEPLGYRQDDPSYRSFHSGGYGQDALGMDPMMEHEMGGHHPGADYPVDGLPDLGHAQDLMDGLPPGDSNQLAWFDTDL

Molecular target: endogenous E-cadherin (dog (endogenous in MDCK))
Assay: co-IP; endogenous E-cadherin collected by antibodies to its extracellular part from lysates of MDCK cells expressing DsRed, DECT, DECTSA, DECTN or DECTC; immunoblot with anti-β-catenin or anti-plakoglobin; bands quantified with NIH Image as percent of DsRed cells

endogenous E-cadherin (dog (endogenous in MDCK)), sequence (F1PAA9 27-885): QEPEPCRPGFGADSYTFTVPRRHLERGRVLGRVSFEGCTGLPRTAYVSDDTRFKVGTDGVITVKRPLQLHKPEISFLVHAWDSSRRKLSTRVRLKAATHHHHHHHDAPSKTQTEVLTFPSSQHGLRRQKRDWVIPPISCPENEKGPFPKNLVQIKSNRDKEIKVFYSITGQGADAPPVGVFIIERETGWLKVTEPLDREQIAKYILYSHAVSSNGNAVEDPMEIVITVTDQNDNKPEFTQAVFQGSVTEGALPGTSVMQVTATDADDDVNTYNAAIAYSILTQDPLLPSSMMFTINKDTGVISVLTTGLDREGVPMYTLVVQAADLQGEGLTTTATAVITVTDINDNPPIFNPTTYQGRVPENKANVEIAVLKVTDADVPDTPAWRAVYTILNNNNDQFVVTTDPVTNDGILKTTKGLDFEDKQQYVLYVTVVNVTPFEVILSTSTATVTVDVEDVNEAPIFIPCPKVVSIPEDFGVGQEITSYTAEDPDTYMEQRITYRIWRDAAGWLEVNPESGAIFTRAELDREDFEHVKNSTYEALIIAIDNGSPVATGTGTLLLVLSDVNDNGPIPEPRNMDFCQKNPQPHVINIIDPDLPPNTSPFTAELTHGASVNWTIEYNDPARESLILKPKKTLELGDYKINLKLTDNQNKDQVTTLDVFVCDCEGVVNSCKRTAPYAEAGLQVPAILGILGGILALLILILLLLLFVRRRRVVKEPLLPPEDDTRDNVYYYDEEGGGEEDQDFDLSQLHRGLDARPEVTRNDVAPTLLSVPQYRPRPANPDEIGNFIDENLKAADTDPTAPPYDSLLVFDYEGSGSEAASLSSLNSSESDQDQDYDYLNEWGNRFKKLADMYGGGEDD

Molecule	percent co-precipitated with endogenous E-cadherin relative to DsRed cells (cells expressing DECT)	percent co-precipitated with endogenous E-cadherin relative to DsRed cells (cells expressing DECTC)	percent co-precipitated with endogenous E-cadherin relative to DsRed cells (cells expressing DECTN)	percent co-precipitated with endogenous E-cadherin relative to DsRed cells (cells expressing DsRed)
plakoglobin (natural protein)	33%	187%	100%	100%
B1	4%	24%	102%	100%
